Measurements reported in FireProtDB (doi:10.1021/bi00123a006).

Conditions: Bacillus amyloliquefaciens, 25 °C, Urea, NMR, NaCl 1 M, whole UniProt chain shown

B1: Ribonuclease wild type, P00648 (protein)
chain: MMKMEGIALKKRLSWISVCLLVLVSAAGMLFSTAAKTETSSHKAHTEAQVINTFDGVADYLQTYHKLPDNYITKSEAQALGWVASKGNLADVAPGKSIGGDIFSNREGKLPGKSGRTWREADINYTSGFRNSDRILYSSDWLIYKTTDHYQTFTKIR
unfolding free energy (pH 4.4, Sodium acetate 30 mM): 8.13 kcal/mol
unfolding free energy (pH 8.9, Tris 30 mM): 8.05 kcal/mol
